For this assay, the target named is T1, ACE2 tested for a complex with GMI by immunoprecipitation (human, UniProt Q9BYF1 18-805).
T1 construct: also called hACE2; angiotensin converting enzyme 2
Nature of the assay: immunoprecipitation.

T1 sequence (Q9BYF1 18-805 limits assumed, one chain of several): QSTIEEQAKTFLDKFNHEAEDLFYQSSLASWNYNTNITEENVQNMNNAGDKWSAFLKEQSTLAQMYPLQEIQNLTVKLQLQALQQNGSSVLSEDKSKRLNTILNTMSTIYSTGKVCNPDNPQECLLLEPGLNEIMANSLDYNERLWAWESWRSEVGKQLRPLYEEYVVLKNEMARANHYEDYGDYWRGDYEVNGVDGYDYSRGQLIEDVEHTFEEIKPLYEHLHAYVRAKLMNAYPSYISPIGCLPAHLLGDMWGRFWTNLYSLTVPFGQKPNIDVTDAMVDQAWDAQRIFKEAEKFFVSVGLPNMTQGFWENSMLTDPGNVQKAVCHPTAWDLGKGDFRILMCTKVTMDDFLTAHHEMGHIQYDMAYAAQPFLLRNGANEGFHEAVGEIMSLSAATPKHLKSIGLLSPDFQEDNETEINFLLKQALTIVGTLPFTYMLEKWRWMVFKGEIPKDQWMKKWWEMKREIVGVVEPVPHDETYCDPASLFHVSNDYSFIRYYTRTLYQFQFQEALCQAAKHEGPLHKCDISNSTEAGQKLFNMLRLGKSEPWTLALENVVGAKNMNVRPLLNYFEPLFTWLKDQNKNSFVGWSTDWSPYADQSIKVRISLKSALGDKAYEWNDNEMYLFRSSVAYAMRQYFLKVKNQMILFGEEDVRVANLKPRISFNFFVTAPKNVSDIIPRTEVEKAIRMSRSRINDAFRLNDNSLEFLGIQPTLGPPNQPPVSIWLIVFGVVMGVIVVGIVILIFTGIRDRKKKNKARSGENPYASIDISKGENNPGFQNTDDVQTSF

B1: Ganoderma immunomodulatory protein (GMI) from Ganoderma microsporum (other)
chain: MSDTALIFTLAWNVKQLAFDYTPNWGRGRPSSFIDTVTFPTVLTDKAYTYRVVVSGKDLGVRPSYAVESDGSQKINFLEYNSGYGIADTNTIQVYVIDPDTGNNFIVAQWN
notes: also called His tagged-GMI; fungal immunomodulatory protein (FIP)
For B1, the binding result is recorded as “no binding”.

For the origin of these results see patent US20230233632A1 (MYCOMAGIC BIOTECHNOLOGY, published 2023).
